Data on 4 molecules can be found in publication PMC7215387, “Comparison of Target Recognition by TRAF1 and TRAF2” (International Journal of Molecular Sciences, 2020).

Residues, ends and D or L forms follow the SMILES beside them.

Test [1] deals with T1, TRAF1 F347L mutant (Homo sapiens, UniProt Q13077, F347L).
T1 construct: the TRAF1 TRAF domain (amino acid residues 220-416); 6xHis (C); made in house; host or cells: E. coli BL21 (DE3)
T1 sequence (Q13077 220-416 F347L): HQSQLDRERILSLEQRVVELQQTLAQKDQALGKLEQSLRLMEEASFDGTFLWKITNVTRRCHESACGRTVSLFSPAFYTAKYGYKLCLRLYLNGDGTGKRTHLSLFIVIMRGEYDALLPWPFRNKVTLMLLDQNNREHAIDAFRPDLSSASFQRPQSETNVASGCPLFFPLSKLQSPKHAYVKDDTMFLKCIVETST
Nature of the test: Isothermal titration calorimetry (ITC), TRAF1 F347L mutant. Format: binding. As to conditions: Supplementary Figure S2a,b. The source says: To understand how TRAF1 binds with higher affinity to TANK and caspase-2, we compared the amino acid sequence of the receptor-binding hot spots on TRAF1 and TRAF2. There are three well-known hot spots in TRAFs (Figure 5a). Based on the sequence comparison, two amino acid residues in TRAF1, F347 of hot spot1 and A369 of hot spot2, were not conserved in TRAF2 (Figure 5b). As the two non-conserved amino acid residues of TRAF1 may generate different conditions for receptor-binding regions and affect its affinity for various receptors, we compared the receptor-binding regions between TRAF1 and TRAF2 by comparing the TRAF1:TANK structure with the TRAF2:latent membrane protein 1 (LMP1) structure (Figure 5c). […] S454 of TRAF2 was not critical for the formation of an H-bond cluster, unlike residues S453 and S455, which were closely located to the Q at the P0 position of the receptor peptide. […] However, F347 on TRAF1 (corresponding to L432 on TRAF2) was critical for determining receptor preference and binding affinity by contributing to the formation of a stable hydrophobic pocket in the hot spot1 motif.
A NanoITC (TA Instruments) was used for isothermal titration calorimetry experiments. […] Binding isotherms were analyzed by using the software provided by TA Instruments. […]
In general terms: Isothermal titration calorimetry measures the heat released or taken up as one component is titrated into another.

The target of test [2] is T2, TRAF2 TRAF domain (amino acid residues 305-501) (UniProt Q12933 305-501).
T2 construct: TRAF2 (TNF receptor-associated factor 2), TRAF domain, residues 305-501; it speaks of 'the three subunits of TRAF2'; source: E. coli BL21 (DE3), purified (Ni-NTA, SEC); not shown: His6, C-terminal, kept
T2 sequence (looked up): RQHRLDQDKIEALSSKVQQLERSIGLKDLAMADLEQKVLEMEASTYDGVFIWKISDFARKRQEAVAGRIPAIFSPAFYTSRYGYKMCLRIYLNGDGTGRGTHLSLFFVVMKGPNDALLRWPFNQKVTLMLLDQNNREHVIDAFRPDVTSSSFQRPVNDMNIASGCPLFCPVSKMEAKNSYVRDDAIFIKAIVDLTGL
Nature of the test: ITC; NanoITC; peptide (1 mM) injected into the cell with TRAF domain (~20 uM); PBS; 15 °C; 25 injections; single site model. The settings on record: both partners purified.

In test [3] the target is T3, TRAF1 TRAF domain (amino acid residues 220-416) (UniProt Q13077 220-416).
T3 construct: TRAF1 (TNF receptor-associated factor 1), TRAF domain, residues 220-416; it speaks of 'trimeric TRAF1'; source: E. coli BL21 (DE3), purified (Ni-NTA, SEC); not shown: His6, C-terminal, kept
T3 sequence (looked up): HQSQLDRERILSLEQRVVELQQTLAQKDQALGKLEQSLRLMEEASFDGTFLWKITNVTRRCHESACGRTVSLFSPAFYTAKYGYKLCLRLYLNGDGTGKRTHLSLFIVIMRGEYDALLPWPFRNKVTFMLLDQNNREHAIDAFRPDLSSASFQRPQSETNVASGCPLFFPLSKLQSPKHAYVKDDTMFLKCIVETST
Described as above. As to conditions: both partners purified.

Test [4] concerns the target TRAF1 F347L mutant (UniProt Q13077). The test is described as above.
Test [5] addresses TRAF2 S454A mutant (UniProt Q12933). Nature of the test: ITC; TRADD with TRAF2 S454A mutant; who was titrated and conditions not told for this experiment.
The target in test [6] is T2, TRAF2 TRAF domain (amino acid residues …). Nature of the test: SPR; Biacore T200; His-tagged TRAF domain held on Ni-NTA chip; TRADD-N 0.39-3.125 uM flowed over in PBS, 30 uL/min. As to conditions: both partners purified.
In test [7] the target is T3, TRAF1 TRAF domain (amino acid residues …). Described as above. As to conditions: both partners purified.

As usually defined, the Kd is the concentration at which binding is half-saturated. In test [1], `CC[C@H](C)[C@H](NC(=O)[C@@H]1CCCN1C(=O)[C@@H](NC(=O)[C@@H](N)CO)C(C)C)C(=O)N[C@@H](CCC(N)=O)C(=O)N[C@@H](CS)C(=O)N[C@H](C(=O)N[C@@H](CC(=O)O)C(=O)N[C@@H](CCCCN)C(=O)N[C@H](C(=O)O)[C@@H](C)O)[C@@H](C)O` [TANK] (H-SVPIQCTDKT-OH) returned a Kd of about 15 µM.

For the molecule TAQEM (source: synthetic peptide (Peptron)) [caspase-2 peptide (TAQEM)], the Kd in test [2] amounted to 117 µM; in test [3] it was 86.9 µM; in test [4], 265 µM.

B1: N-terminal domain of TRADD (TRADD-N, amino acid residues 1-163) (domain or fragment, UniProt Q15628 1-163, looked up)
chain: MAAGQNGHEEWVGSAYLFVESSLDKVVLSDAYAHPQQKVAVYRALQAALAESGGSPDVLQMLKIHRSDPQLIVQLRFCGRQPCGRFLRAYREGALRAALQRSLAAALAQHSVPLQLELRAGAERLDALLADEERCLSCILAQQPDRLRDEELAELEDALRNLK
notes: TRADD (tumor necrosis factor receptor type 1-associated death domain protein), N-terminal domain, residues 1-163; Cloned into pET24a by NdeI and XhoI; source: E. coli, purified (almost identical to the method for TRAF1 and TRAF2; SEC in 20 mM Tris-HCl pH 8.0, 150 mM NaCl)
Consider B1, for which the Kd in test [5] stood at 55 nM; in test [6] it was 18 nM; in test [7], 82 nM.

In the case of SVPIQCTDKT (source: synthetic peptide (Peptron)) [TANK peptide (SVPIQCTDKT)], the results for the Kd in test [2] and in test [3] were 11.7 µM and 2.5 µM, respectively.
